{"source": "patent US10533038B2", "about": "“Methods of reducing TDP-43-mediated neuronal cytotoxicity in amyotrophic lateral sclerosis by a UPF1 polypeptide or polynucleotide” (Brandeis University, priority 2012, dated 2020)", "key": {"[1]": {"tested_on": "ALS patients", "conditions": "some ALS patients; cited from earlier work"}, "[2]": {"tested_on": "motor neurons expressing TDP-43", "test": "Kaplan-Meyer survival of motor neurons expressing disease-associated TDP-43 and UPF1", "type": "cell-based, mice or human", "conditions": "UPF1 expressed in motor neurons expressing EGFP-tagged TDP-43; FIG. 1B", "excerpt": "(§1) To test the efficacy of UPF1 in reducing TDP-43 or FUS-mediated cytotoxicity in neurons, UPF1 was expressed in motor neurons expressing disease-associated FUS or TDP-43. Motor neurons were either isolated from mice or created from fibroblasts taken from human ALS patients using iPS cell techniques (described in Yamanaka et al., Cell 126:663-676 (2006)). FUS or TDP-43 were tagged with EGFP (Enhanced Green Fluorescent Protein) and expressed in motor neurons, which were visualized by fluorescent microscopy using mApple.\n(§2) The motor neurons died within a few days of FUS or TDP-43 expression due to toxicity of these ALS-related proteins. UPF1 was expressed in the motor neurons and Kaplan-Meyer survival curves were determined."}, "[3]": {"tested_on": "ALS-associated TDP-43 mutations in yeast", "test": "Yeast model of ALS: suppression of cytotoxicity of TDP-43 mutations", "type": "cell-based"}, "[4]": {"tested_on": "ALS-associated mutants of SOD1", "test": "Rescue of toxicity of ALS-associated mutants of SOD1 by UPF1 expression", "type": "cell-based"}, "[5]": {"tested_on": "TDP-43", "test": "Cytoplasmic level of TDP-43 in neuronal cells expressing UPF1", "type": "cell-based", "conditions": "expression of UPF1", "excerpt": "(§3) The present invention encompasses the surprising finding that NMD agents are useful, among other things, in the treatment or prevention (i.e., delay of onset) of ALS. […] Accordingly, in some embodiments, an NMD agent is provided to the central nervous system of a subject, e.g., a subject suffering from or susceptible to ALS. In some embodiments, an NMD agent is provided to one or more of target cells or tissues of brain, spinal cord, and/or peripheral organs. In some embodiments, target cells or tissues include those cells or tissues that display a disease-associated pathology, symptom, or feature. In some embodiments, target cells or tissues include those cells or tissues in which TDP-43 or FUS/TLS is expressed at an elevated level, e.g., cells in which TDP-43 or FUS/TLS is expressed at an elevated level in the cytoplasm of the cells. As used herein, a target tissue may be a brain target tissue, a spinal cord target tissue and/or a peripheral target tissue."}, "[6]": {"tested_on": "FUS/TLS", "test": "Cytoplasmic level of FUS/TLS in neuronal cells expressing UPF1", "type": "cell-based", "conditions": "expression of UPF1", "excerpt": "as §3"}, "[7]": {"tested_on": "FUS/TLS toxicity in yeast", "conditions": "yeast model of ALS; Ju et al., PLoS Biol. 2011; cited from earlier work"}, "[8]": {"tested_on": "motor neurons expressing FUS", "test": "Survival of motor neurons expressing disease-associated FUS and UPF1", "type": "cell-based, mice or human", "conditions": "UPF1 expressed in cells expressing FUS; data not shown", "excerpt": "as §1, §2"}, "[9]": {"tested_on": "wild type neurons", "test": "Kaplan-Meyer survival of wild type motor neurons expressing UPF1", "type": "cell-based, mice or human", "conditions": "UPF1 expression in motor neurons; FIG. 1A", "excerpt": "as §1, §2"}}, "note": "“Also recorded” adds a separate entry of the source.", "data": [{"molecule": "Nc1nc2ccc(OC(F)(F)F)cc2s1", "note": "[riluzole]", "values": [{"measurement": "extension of lifespan of ALS patients", "setting": "[1]", "value": "about 3 months"}]}, {"molecule": "UPF1: protein involved in nonsense-mediated mRNA decay (NMD), expressed in neurons; amino acid sequence SEQ ID NO: 2 (protein, listed as Homo sapiens) MSVEAYGPSSQTLTFLDTEEAELLGADTQGSEFEFTDFTLPSQTQTPPGGPGGPGGGGAGSPGGAGAGAAAGQLDAQVGPEGILQNGAVDDSVAKTSQLLAELNFEEDEEDTYYTKDLPIHACSYCGIHDPACVVYCNTSKKWFCNGRGNTSGSHIVNHLVRAKCKEVTLHKDGPLGETVLECYNCGCRNVFLLGFIPAKADSVVVLLCRQPCASQSSLKDINWDSSQWQPLIQDRCFLSWLVKIPSEQEQLRARQITAQQINKLEELWKENPSATLEDLEKPGVDEEPQHVLLRYEDAYQYQNIFGPLVKLEADYDKKLKESQTQDNITVRWDLGLNKKRIAYFTLPKTDSDMRLMQGDEICLRYKGDLAPLWKGIGHVIKVPDNYGDEIAIELRSSVGAPVEVTHNFQVDFVWKSTSFDRMQSALKTFAVDETSVSGYIYHKLLGHEVEDVITKCQLPKRFTAQGLPDLNHSQVYAVKTVLQRPLSLIQGPPGTGKTVTSATIVYHLARQGNGPVLVCAPSNIAVDQLTEKIHQTGLKVVRLCAKSREAIDSPVSFLALHNQIRNMDSMPELQKLQQLKDETGELSSADEKRYRALKRTAERELLMNADVICCTCVGAGDPRLAKMQFRSILIDESTQATEPECMVPVVLGAKQLILVGDHCQLGPVVMCKKAAKAGLSQSLFERLVVLGIRPIRLQVQYRMHPALSAFPSNIFYEGSLQNGVTAADRVKKGFDFQWPQPDKPMFFYVTQGQEEIASSGTSYLNRTEAANVEKITTKLLKAGAKPDQIGIITPYEGQRSYLVQYMQFSGSLHTKLYQEVEIASVDAFQGREKDFIILSCVRANEHQGIGFLNDPRRLNVALTRARYGVIIVGNPKALSKQPLWNHLLNYYKEQKVLVEGPLNNLRESLMQFSKPRKLVNTINPGARFMTTAMYDAREAIIPGSVYDRSSQGRPSSMYFQTHDQIGMISAGPSHVAAMNIPIPFNLVMPPMPPPGYFGQANGPAAGRGTPKGKTGRGGRQKNRFGLPGPSQTNLPNSQASQDVASQPFSQGALTQGYISMSQPSQMSQPGLSQPELSQDSYLGDEFKSQIDVALSQDSTYQGERAYQHGGVTGLSQY", "values": [{"measurement": "toxicity of TDP-43 in motor neurons", "setting": "[2]", "value": "reduces cellular toxicity; also recorded: completely eliminate the toxicity of TDP-43 in a dose-dependent manner"}, {"measurement": "cytotoxicity of ALS-associated TDP-43 mutations in yeast", "setting": "[3]", "value": "able to suppress the cytotoxicity"}, {"measurement": "rescue of toxicity of ALS-associated mutants of SOD1", "setting": "[4]", "value": "unable to rescue"}, {"measurement": "cytoplasmic levels of TDP-43 in the neuronal cells", "setting": "[5]", "value": "no effect"}, {"measurement": "cytoplasmic levels of FUS/TLS in the neuronal cells", "setting": "[6]", "value": "no effect"}, {"measurement": "toxicity of FUS/TLS in yeast", "setting": "[7]", "value": "able to rescue toxicity; also recorded: suppressed toxicity"}, {"measurement": "toxicity of FUS in motor neurons", "setting": "[8]", "value": "reduces cellular toxicity"}, {"measurement": "effect on survival of wild type neurons", "setting": "[9]", "value": "no effect"}]}]}
